From patent US20210032291A1, “Compstatin Analogs With Improved Pharmacokinetic Properties” (The Trustees of the University of Pennsylvania, priority 2011, published 2021) come the findings set out here.

The target in this assay is C3b (biotinylated, captured site-specifically on a streptavidin chip) (UniProt P01024). Nature of the assay: SPR (Biacore 3000), single-cycle kinetics, biotinylated C3b on streptavidin chip, peptide as analyte, 1:1 Langmuir fit. In general terms: SPR reads the build-up and loss of mass on a sensor chip optically.
For the substance “Peptide 9: Tyr(Me)-Ile-[Cys-Val-Trp(Me)-Gln-Asp-Trp-Sar-Ala-His-Arg-Cys]-mIle-NH2”, the dissociation rate constant (koff) (in general, the first-order rate constant of dissociation) is 0.0026 s⁻¹ and the on-rate (kon) (commonly the rate constant with which the complex forms) came out at 2.3e+06 M⁻¹ s⁻¹.
Turning to “Peptide 15: D-Phe-Ile-[Cys-Val-Trp(Me)-Gln-Asp-Trp-Sar-Ala-His-Arg-Cys]-mIle-NH2”, the equilibrium dissociation constant (Kd) (commonly the constant that tells how readily two partners part at equilibrium) was 1.1 nM, the off-rate (koff) came to 0.0026 s⁻¹ and the on-rate (kon) is 2.3e+06 M⁻¹ s⁻¹.
In the same order, the values of “Peptide 16: D-Trp-Ile-[Cys-Val-Trp(Me)-Gln-Asp-Trp-Sar-Ala-His-Arg-Cys]-mIle-NH2” are 1.2 nM, 0.0024 s⁻¹ and 2e+06 M⁻¹ s⁻¹.
In the same order, the values of “Peptide 17: D-Cha-Ile-[Cys-Val-Trp(Me)-Gln-Asp-Trp-Sar-Ala-His-Arg-Cys]-mIle-NH2” are 1.5 nM, 0.0027 s⁻¹ and 1.8e+06 M⁻¹ s⁻¹.
For “Peptide 18: D-Ala-Ile-[Cys-Val-Trp(Me)-Gln-Asp-Trp-Sar-Ala-His-Arg-Cys]-mIle-NH2”, the equilibrium dissociation constant (Kd) came out at 2.5 nM, the off-rate constant (koff) worked out at 0.0034 s⁻¹ and the kon is 1.4e+06 M⁻¹ s⁻¹.
